Data published in patent publication US20140178935A1 (AVEO PHARMACEUTICALS, published 2014).

Target: T1, recombinant human HGF (R&D Systems, Catalog No. 294-HGN-025) (human, UniProt P14210 32-728)
T1 construct: Mature HGF is a disulfide-linked heterodimer of alpha and beta chain cut from one precursor; also called rhHGF (R&D Systems); rhHGF
Assay: SPR, antibody captured by anti-mouse Ig, HGF injected, 25 C
Protocol: Rabbit anti-mouse immunoglobulins (BIAcore, Catalog No. BR-1005-14) were immobilized on carboxymethylated dextran CM5 sensor chips (BIAcore, Catalog No. BR-1006-68) by amine coupling (BIAcore, Catalog No. BR-1000-50) using a standard coupling protocol according to manufacturer's instructions. The analyses were performed at 25° C. using PBS (GIBCO, Catalog No. 14040-133) containing 0.05% surfactant P20 (BIAcore, Catalog No. BR-1000-54), 2 mg/mL BSA (EMD, Catalog No. 2930), and 10 mg/mL CM-Dextran Sodium salt (Fluka, Catalog No. 86524) as running buffer.
The antibodies were captured in an individual flow cell at a flow rate of 10 μL/min. Injection time was variable for each antibody to yield approximately 20 RU of antibody captured for each cycle. […] The dissociation phase was monitored for 15 or 90 minutes, depending on concentration. The surface then was regenerated with 10 mM Glycine-HCl, pH 1.7 (BIAcore, Catalog No. BR-1003-54) injected for 3 minutes at a flow rate of 60 μL/min before another cycle was initiated.
Kinetic parameters were determined using the kinetic function of the BIAevalutation software with reference subtraction.

T1 sequence (P14210 32-728 limits assumed): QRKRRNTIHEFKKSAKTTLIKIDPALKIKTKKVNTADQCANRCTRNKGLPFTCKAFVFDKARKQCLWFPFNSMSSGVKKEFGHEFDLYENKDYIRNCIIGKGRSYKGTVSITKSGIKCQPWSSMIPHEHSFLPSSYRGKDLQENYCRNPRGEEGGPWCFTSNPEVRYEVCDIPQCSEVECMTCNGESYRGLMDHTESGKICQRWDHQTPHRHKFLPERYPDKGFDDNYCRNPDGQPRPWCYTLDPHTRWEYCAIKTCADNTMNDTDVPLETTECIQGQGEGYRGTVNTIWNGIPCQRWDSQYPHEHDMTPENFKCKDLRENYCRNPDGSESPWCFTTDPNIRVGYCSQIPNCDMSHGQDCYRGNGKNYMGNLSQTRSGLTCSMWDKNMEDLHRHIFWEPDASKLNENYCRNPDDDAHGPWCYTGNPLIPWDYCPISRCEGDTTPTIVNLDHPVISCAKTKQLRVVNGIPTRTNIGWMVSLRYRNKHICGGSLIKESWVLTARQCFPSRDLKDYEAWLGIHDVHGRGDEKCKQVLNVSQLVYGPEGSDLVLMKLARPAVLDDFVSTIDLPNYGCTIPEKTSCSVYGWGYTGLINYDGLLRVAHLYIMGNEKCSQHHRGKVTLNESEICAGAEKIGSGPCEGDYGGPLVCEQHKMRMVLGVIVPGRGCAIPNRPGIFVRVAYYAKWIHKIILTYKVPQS

Kd: 0.0135 nM | koff: 2.1e-05 s⁻¹ | kon: 1.6e+06 M⁻¹ s⁻¹
B1: anti-hHGF monoclonal antibody 2B8 (antibody, mouse IgG1, kappa)
heavy: QVQLQQPGAELVKPGTSVKLSCKASGYTFTTYWMHWVNQRPGQGLEWIGEINPTNGHTNYNEKFKSKATLTVDKSSSTAYMQLSSLTSEDSAVYYCARNYVGSIFDYWGQGTTLTVSSAKTTPPSVYPLAPGSAAQTNSMVTLGCLVKGYFPEPVTVTWNSGSLSSGVHTFPAVLQSDLYTLSSSVTVPSSTWPSETVTCNVAHPASSTKVDKKIVPRDCGCKPCICTVPEVSSVFIFPPKPKDVLTITLTPKVTCVVVDISKDDPEVQFSWFVDDVEVHTAQTQPREEQFNSTFRSVSELPIMHQDWLNGKEFKCRVNSAAFPAPIEKTISKTKGRPKAPQVYTIPPPKEQMAKDKVSLTCMITDFFPEDITVEWQWNGQPAENYKNTQPIMDTDGSYFVYSKLNVQKSNWEAGNTFTCSVLHEGLHNHHTEKSLSHSPGK
light: NIVMTQSPKSMSMSVGERVTLSCKASENVVSYVSWYQQKPAQSPKLLIYGASNRNTGVPDRFTGSGSATDFTLTISSVRAEDLADYHCGQSYNYPYTFGGGTRLEIKRADAAPTVSIFPPSSEQLTSGGASVVCFLNNFYPKDINVKWKIDGSERQNGVLNSWTDQDSKDSTYSMSSTLTLTKDEYERHNSYTCEATHKTSTSPIVKSFNRNEC
notes: Murine IgG1 kappa from hybridoma; also called murine 2B8; mouse 2B8
